The values that follow come from PMC9671113.

Assay [1] has as its target trimeric pre-fusion SARS-CoV-2 spike glycoprotein (pre-S) (SARS-CoV-2 (Wuhan-Hu-1 strain) | Phage T4) (UniProt P0DTC2). The assay is described as follows: negative-stain electron microscopy (called Cryo-EM by the paper).
The target is the same in assay [2]. The assay is described as follows: SEC. For orientation: In gel filtration, larger molecules generally elute earlier.

With “trimeric pre-fusion SARS-CoV-2 spike glycoprotein (pre-S) (from UniProt P0DTC2 14-1201) (domain or fragment)”, the stoichiometry N in assay [1] and in assay [2] was 3 each time.

A word on the stoichiometry N: it is the number of molecules, sites or subunits per partner or assembly.
